Source: US20240269235A1
Like-named read-outs stand apart in the source and are kept apart here.

Assays:
Assay in all cases: cell-based or functional assay
[1] = target: human IL-2Rα on Treg cells (CD3+, CD4+, CD25hi, FoxP3+) of human PBMC (human) (UniProt P01589)
[2] = target: trimeric murine IL-2 receptor (IL-2Rα, IL-2Rβ, and IL-2Rγ) on CTLL-2 cells (murine) (UniProt P01590)
[3] = target: trimeric murine IL-2 receptor (IL-2Rα, IL-2Rβ, and IL-2Rγ) on CTLL-2 cells (murine) (UniProt P01590); remark: listed apart in the source

trimeric murine IL-2 receptor (IL-2Rα, IL-2Rβ, and IL-2Rγ) on CTLL-2 cells (murine), sequence (P01590 22-268, chain 1 of 3): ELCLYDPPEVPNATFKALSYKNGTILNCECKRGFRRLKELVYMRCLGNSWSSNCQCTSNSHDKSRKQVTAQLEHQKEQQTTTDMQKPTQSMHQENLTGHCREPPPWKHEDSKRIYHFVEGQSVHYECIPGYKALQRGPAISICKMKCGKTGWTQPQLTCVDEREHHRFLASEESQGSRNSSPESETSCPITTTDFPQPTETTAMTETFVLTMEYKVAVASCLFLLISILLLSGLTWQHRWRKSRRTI
trimeric murine IL-2 receptor (IL-2Rα, IL-2Rβ, and IL-2Rγ) on CTLL-2 cells (murine), sequence (P16297 27-539, chain 2 of 3, further chain): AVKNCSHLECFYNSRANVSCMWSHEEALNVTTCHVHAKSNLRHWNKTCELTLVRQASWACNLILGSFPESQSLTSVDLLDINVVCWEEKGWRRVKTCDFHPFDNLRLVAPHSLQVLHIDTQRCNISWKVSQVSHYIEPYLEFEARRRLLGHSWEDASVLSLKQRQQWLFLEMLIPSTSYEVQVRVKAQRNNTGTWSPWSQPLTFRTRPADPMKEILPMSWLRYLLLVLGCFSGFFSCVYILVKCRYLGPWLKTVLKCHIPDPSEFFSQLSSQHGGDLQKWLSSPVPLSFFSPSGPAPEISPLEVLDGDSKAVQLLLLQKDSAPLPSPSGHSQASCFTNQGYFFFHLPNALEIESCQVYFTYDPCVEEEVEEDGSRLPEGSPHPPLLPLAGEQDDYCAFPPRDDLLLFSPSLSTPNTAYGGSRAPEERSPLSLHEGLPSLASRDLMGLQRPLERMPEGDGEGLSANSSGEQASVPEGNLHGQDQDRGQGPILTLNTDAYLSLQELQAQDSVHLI
trimeric murine IL-2 receptor (IL-2Rα, IL-2Rβ, and IL-2Rγ) on CTLL-2 cells (murine), sequence (P34902 23-369, chain 3 of 3, further chain): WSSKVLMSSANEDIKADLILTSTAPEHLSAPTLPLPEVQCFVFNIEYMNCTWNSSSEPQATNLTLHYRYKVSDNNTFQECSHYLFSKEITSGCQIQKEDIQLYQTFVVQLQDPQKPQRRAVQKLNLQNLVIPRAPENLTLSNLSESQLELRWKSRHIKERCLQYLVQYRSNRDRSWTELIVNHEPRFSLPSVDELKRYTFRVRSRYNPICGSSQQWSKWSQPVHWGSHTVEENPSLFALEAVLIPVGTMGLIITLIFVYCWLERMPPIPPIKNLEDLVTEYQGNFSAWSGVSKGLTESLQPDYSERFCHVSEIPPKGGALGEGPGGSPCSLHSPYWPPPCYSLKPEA
human IL-2Rα on Treg cells (CD3+, CD4+, CD25hi, FoxP3+) of human PBMC (human), sequence (P01589 22-272): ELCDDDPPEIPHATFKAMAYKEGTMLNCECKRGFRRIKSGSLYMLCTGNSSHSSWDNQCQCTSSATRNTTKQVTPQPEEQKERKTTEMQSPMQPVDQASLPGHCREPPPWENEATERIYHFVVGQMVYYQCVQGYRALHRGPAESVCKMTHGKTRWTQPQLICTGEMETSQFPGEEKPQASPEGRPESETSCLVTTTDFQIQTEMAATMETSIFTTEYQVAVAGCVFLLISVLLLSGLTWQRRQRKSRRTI

Treg EC50, STAT5 activation (PBMC STAT5 assay) [1]: < 1 pM | STAT5 activation of CTLL-2 cells, EC50 [2]: 6 pM | STAT5 activation of CTLL-2 cells, EC50 [3]: 2 pM
Substance: Proleukin (from UniProt P60568 22-153) (ligand)
